Experimental data reported in patent US10006009B2, “Codon-optimized gene for mutated shrimp luciferase and method for use thereof” (JNC CORPORATION, priority 2013, dated 2018).

B1: nanoKAZ: mutated catalytic 19 kDa domain protein of Oplophorus luciferase encoded by the codon-optimized gene (SEQ ID NO: 1) (protein)
chain: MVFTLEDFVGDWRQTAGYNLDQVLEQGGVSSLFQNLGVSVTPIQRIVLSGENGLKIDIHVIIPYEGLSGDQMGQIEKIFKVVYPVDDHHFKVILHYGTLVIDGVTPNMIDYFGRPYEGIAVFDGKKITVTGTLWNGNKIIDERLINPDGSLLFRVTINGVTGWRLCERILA
B2: nanoKAZ gene: codon-optimized gene for the mutated catalytic 19 kDa domain of Oplophorus luciferase, SEQ ID NO: 2 (nucleic acid)
DNA: ATGGTCTTCACCCTGGAGGACTTCGTCGGCGACTGGAGACAGACCGCCGGCTACAACCTGGACCAGGTCCTGGAGCAGGGCGGCGTCAGCAGCCTGTTCCAGAACCTGGGCGTCAGCGTCACCCCCATCCAGAGAATCGTCCTTAGCGGCGAGAACGGCCTGAAGATCGACATCCACGTCATCATCCCCTACGAGGGCCTGAGCGGCGACCAGATGGGCCAGATCGAGAAGATCTTCAAGGTCGTCTACCCCGTCGACGACCACCACTTCAAGGTCATCCTGCACTACGGCACCCTGGTCATCGACGGCGTCACCCCCAACATGATCGACTACTTCGGTAGACCCTACGAGGGCATCGCCGTCTTCGACGGCAAGAAGATCACCGTCACCGGCACCCTGTGGAACGGCAACAAGATCATCGACGAGAGACTGATCAACCCCGACGGCAGCCTGCTGTTCAGAGTCACCATCAACGGCGTCACCGGCTGGAGACTGTGCGAGAGAATCCTGGCCTAA
modifications: synthetic DNA

System: CHO-K1 cells
Experiment: Comparison of expression between nanoKAZ and nanoLuc genes in CHO-K1 cells
Type: cell-based, Chinese hamster
Source text: In order to compare the gene expression efficiency between the nanoKAZ gene and the nanoLuc gene in the cultured cell system, an expression vector that was different only in the nanoKAZ gene sequence and the nanoLuc gene sequence was constructed. The expression vector constructed was transfected to CHO-K1 cells. Then, the expression level of luciferase activity was compared by the following procedure. In the nanoLuc gene, the gene sequence described in Hall et al. (2012) ACS Chem. Biol. […] was chemically synthesized and provided for use.
The vector was introduced into CHO-K1 cells by the method described in EXAMPLE 3. After incubation for 23 hours, the culture medium and the cell extract were recovered. The luminescence activity in the culture medium and the cells was measured by the method described in EXAMPLE 4, using coelenterazine as a light-emitting substrate.

Molecule	luminescence activity relative to nanoLuc (with signal peptide, secreted into the culture medium)	expression relative to the nanoLuc gene (without secretory signal, in the culture medium and the cells)
B1	about 1.4 fold	
B2		about 2 fold
